{"source": "patent US12447213B2", "about": "“Modulation of novel immune checkpoint targets” (The Brigham and Women's Hospital, Inc., priority 2016, dated 2025)", "key": {"Factor VII": {"test_system": "Factor VII", "conditions": "LNP siRNA systems containing these lipids; cited from earlier work"}, "naïve CD4 T cells": {"test_system": "naïve CD4 T cells", "test": "Gp49 expression on naïve CD4 T cells cultured with polarizing cytokines (FACS day 3)", "type": "cell-based, mice", "conditions": "plate-bound anti-CD3/anti-CD28 plus polarizing cytokines"}, "[1]": {"test_system": "naïve CD4+ and CD8+ T cells", "test": "In vitro T-cell differentiation with IL-27: co-inhibitory receptor expression by real-time PCR and flow cytometry", "type": "cell-based, mice", "from_the_text": "FIG. 1A-1M. illustrates that IL-27 induces multiple co-inhibitory receptors on CD4^+ and CD8^+ T cells. CD4^+ and CD8^+ tumor-infiltrating lymphocytes (TILs) harvested from wild type (WT) mice bearing B16F10 melanoma tumors. FIG. 1A) Naïve T cells from either WT or IL-27ra deficient mice (IL27ra KO) were stimulated with anti-CD3/CD28 in the presence or absence of IL-27 as indicated. Expression of the indicated co-inhibitory molecules was examined by real-time PCR at 96 hr (CD4) and 72 hr (CD8), n≥3, error bars indicate s.e.m. FIG. 1B) Surface expression of co-inhibitory receptors on T cells stimulated as in (A) was determined by flow cytometry. Representative data are shown. FIG. 1C) Co-expression analysis of co-inhibitory and co-stimulatory receptor mRNA expression as determined by single cell RNAseq (316 and 516 for CD4^+ and CD8^+ respectively). For visualization purposes negative correlation values were set to zero. FIG. 1D) Protein expression by CyTOF for 23,656 CD4^+ and 36,486 CD8^+ TILs. Co-expression was analyzed using Spearman correlation. For visualization purposes negative correlation values were set to zero. FIG. 1E) TILs were harvested from WT and IL27ra KO mice bearing B16F10 melanoma and analyzed using CyTOF. CyTOF data were analyzed using vi-SNE. Polygons indicating clusters 1, 2 (in CD8^+ T cells), 3 and 4 (in CD4^+ T cells) are shown. FIG. 1F) The within groups sum of squared error (SSE) plot. […] FIG. 1G) Gap statistics for estimating the optimal number of clusters using k-means from 1 up to 12 clusters using bootstrapping and first SE max method. […] Visualization of cluster distribution using two-dimensional non-linear embedding of the protein expression profiles by t-SNE. FIG. 1I) CyTOF expression analysis of co-inhibitory and co-stimulatory receptors in TILs harvested from B16F10 melanoma tumor-bearing WT and […] mice from FIG. 1A and FIG. 1J using t-SNE. FIG. 1J) vi-SNE plot highlighting the distribution of CD8^+ TILs from WT (red) and IL27ra KO (blue) mice in clusters 1 and 2 and CD4^+ TILs from WT (red) and IL27ra KO (blue) mice in clusters 3 and 4. Pie charts show the distribution of WT or IL27ra KO CD8^+ and CD4^+ TILs in each cluster. Bar graphs show the mean of signal intensity for PD-1, Tim-3, Lag-3, and TIGIT from WT and IL27ra KO TILs. Error bars are the standard error and p-values for significance are calculated using standard t-test (**p<0.01). FIG. 1K) Expression of PD-1, Tim-3, Lag-3, TIGIT, and IL-10 on CD8^+ TILs obtained from WT and IL27ra KO mice bearing B16F10 melanoma was determined by flow cytometry. Thy1.1-IL-10 reporter mice crossed with WT and IL27ra KO mice were used for IL-10 expression analysis. FIG. 1L, FIG. 1M) Impact of IL-27 signaling on co-inhibitory receptor expression in TILs. Pie charts show the distribution of CD8^+ and CD4^+ TILs from WT and IL27ra KO mice bearing B16F10 melanoma between clusters 1 and 2 for CD8^+ and between clusters 3 and 4 for CD4^+ TILs as determined by k-means clustering of CyTOF protein expression data.\nFlow cytometry: Single cell suspensions were stained with antibodies against CD4 (RM4-5), CD8 (53-6.7), PD-1 (RMP1-30), Lag-3 (C9B7W), TIGIT (GIGD7), and Tim-3 (5D12), Procr (eBio1560), and Pdpn (8.1.1) and were obtained from BioLegend (San Diego, Calif.). Fixable viability dye eF506 (eBioscience) was used to exclude dead cells. For intra-cytoplasmic cytokine staining, cells were stimulated with (PMA) (50 ng/ml, Sigma-Aldrich, MO), ionomycin (1 μg/ml, Sigma-Aldrich, MO). Permeabilized cells were then stained with antibodies against IL-2, TNF-α, IFN-γ or IL-10. All data were collected on a BD LSR II (BD Biosciences) and analyzed with FlowJo software (Tree Star).\nIn vitro T-cell differentiation: CD4^+ and CD8^+ T cells were purified from spleen and lymph nodes using anti-CD4 microbeads (Miltenyi Biotech) then stained in PBS with 0.5% BSA for 15 min on ice with anti-CD4, anti-CD8, anti-CD62L, and anti-CD44 antibodies (all from Biolegend, CA). […]"}, "[2]": {"conditions": "activation of naïve CD4+ and CD8+ T cells in vitro in the presence of IL-27"}, "[3]": {"conditions": "anti-CD3/CD28 in the presence of IL-27, CD4+ and CD8+ T cells"}}}
{"molecule": "1,2-dilinoleyloxy-keto-N,N-dimethyl-3-aminopropane [DLinKDMA]", "values": [{"measurement": "gene silencing potency series", "setting": "Factor VII", "value": "DLinKC2-DMA>DLinKDMA>DLinDMA>>DLinDAP"}]}
{"molecule": "CCCCC/C=C\\C/C=C\\CCCCCCCC(=O)OCC(CN(C)C)OC(=O)CCCCCCC/C=C\\C/C=C\\CCCCC", "note": "(centres unmarked) [DLinDAP, 1,2-dilineoyl-3-dimethylammonium-propane]", "values": [{"measurement": "gene silencing potency series", "setting": "Factor VII", "value": "DLinKC2-DMA>DLinKDMA>DLinDMA>>DLinDAP"}]}
{"molecule": "CCCCC/C=C\\C/C=C\\CCCCCCCCOCC(CN(C)C)OCCCCCCCC/C=C\\C/C=C\\CCCCC", "note": "(centres unmarked) [DLinDMA, 1,2-dilinoleyloxy-3-N,N-dimethylaminopropane]", "values": [{"measurement": "gene silencing potency series", "setting": "Factor VII", "value": "DLinKC2-DMA>DLinKDMA>DLinDMA>>DLinDAP"}]}
{"molecule": "CCCCC/C=C\\C/C=C\\CCCCCCCCC1(CCCCCCCC/C=C\\C/C=C\\CCCCC)OCC(CCN(C)C)O1", "note": "(centres unmarked) [DLinKC2-DMA, 1,2-dilinoleyl-4-(2-dimethylaminoethyl)-[1,3]-dioxolane]", "values": [{"measurement": "gene silencing potency series", "setting": "Factor VII", "value": "DLinKC2-DMA>DLinKDMA>DLinDMA>>DLinDAP"}]}
{"molecule": "TGFb", "values": [{"measurement": "Gp49 expression", "setting": "naïve CD4 T cells", "value": "inhibited"}]}
{"molecule": "IL-27: heterodimeric cytokine, member of the IL-12 family; rmIL-27 (25 ng/ml) (eBioscience) used in vitro (protein) chain 1: FPTDPLSLQELRREFTVSLYLARKLLSEVQGYVHSFAESRLPGVNLDLLPLGYHLPNVSLTFQAWHHLSDSERLCFLATTLRPFPAMLGGLGTQGTWTSSEREQLWAMRLDLRDLHRHLRFQVLAAGFKCSKEEEDKEEEEEEEEEEKKLPLGALGGPNQVSSQVSWPQLLYTYQLLHSLELVLSRAVRDLLLLSLPRRPGSAWDS chain 2: YTETALVALSQPRVQCHASRYPVAVDCSWTPLQAPNSTRSTSFIATYRLGVATQQQSQPCLQRSPQASRCTIPDVHLFSTVPYMLNVTAVHPGGASSSLLAFVAERIIKPDPPEGVRLRTAGQRLQVLWHPPASWPFPDIFSLKYRLRYRRRGASHFRQVGPIEATTFTLRNSKPHAKYCIQVSAQDLTDYGKPSDWSLPGQVESAPHKP", "values": [{"measurement": "Pdpn expression by qPCR and flow cytometry", "setting": "[1]; [2]", "value": "induced"}, {"measurement": "Procr expression by qPCR and flow cytometry", "setting": "[1]; [2]", "value": "induced"}, {"measurement": "Lag-3 expression, mRNA and protein level", "setting": "[1]; [3]", "value": "induced"}, {"measurement": "TIGIT expression, mRNA and protein level", "setting": "[1]; [3]", "value": "induced"}, {"measurement": "Tim-3 (Havcr2) expression, mRNA and protein level", "setting": "[1]; [3]", "value": "induced"}, {"measurement": "PD-1 (Pdcd1) expression", "setting": "[1]; in vitro, anti-CD3/CD28 in the presence of IL-27", "value": "not affected"}]}
